From IntAct's records for PubMed 18376416

B1: Protein XRP2 (Homo sapiens), O75695 (parent)
chain: MGCFFSKRRKADKESRPENEEERPKQYSWDQREKVDPKDYMFSGLKDETVGRLPGTVAGQQFLIQDCENCNIYIFDHSATVTIDDCTNCIIFLGPVKGSVFFRNCRDCKCTLACQQFRVRDCRKLEVFLCCATQPIIESSSNIKFGCFQWYYPELAFQFKDAGLSIFNNTWSNIHDFTPVSGELNWSLLPEDAVVQDYVPIPTTEELKAVRVSTEANRSIVPISRGQRQKSSDESCLVVLFAGDYTIANARKLIDEMVGKGFFLVQTKEVSMKAEDAQRVFREKAPDFLPLLNKGPVIALEFNGDGAVEVCQLIVNEIFNGTKMFVSESKETASGDVDSFYNFADIQMGI

Variants of: B1
Conditions: with arl3_mouse Arl3, Q9WUL7
Sequence of arl3_mouse Arl3, Q9WUL7 (Q9WUL7 whole entry): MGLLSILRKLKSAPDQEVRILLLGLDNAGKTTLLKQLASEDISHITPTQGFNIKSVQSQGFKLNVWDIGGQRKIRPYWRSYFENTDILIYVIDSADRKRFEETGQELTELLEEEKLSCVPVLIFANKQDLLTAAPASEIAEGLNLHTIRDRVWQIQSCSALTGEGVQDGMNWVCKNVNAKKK

Effect of a mutation on the interaction, decreasing interaction:
MGCFFSKRRKADKESRPENEEERPKQYSWDQREKVDPKDYMFSGLKDETVGRLPGTVAGQQFLIQDCENCNIYIFDHSATVTIDDCTNCIIFLGPVKGSVFFRNCRDCKCTLACQQFAVRDCRKLEVFLCCATQPIIESSSNIKFGCFQWYYPELAFQFKDAGLSIFNNTWSNIHDFTPVSGELNWSLLPEDAVVQDYVPIPTTEELKAVRVSTEANRSIVPISRGQRQKSSDESCLVVLFAGDYTIANARKLIDEMVGKGFFLVQTKEVSMKAEDAQRVFREKAPDFLPLLNKGPVIALEFNGDGAVEVCQLIVNEIFNGTKMFVSESKETASGDVDSFYNFADIQMGI [R118A]
MGCFFSKRRKADKESRPENEEERPKQYSWDQREKVDPKDYMFSGLKDETVGRLPGTVAGQQFLIQDCENCNIYIFDHSATVTIDDCTNCIIFLGPVKGSVFFRNCRDCKCTLACQQFRVRDCRKLEVFLCCATQPIIGSSSNIKFGCFQWYYPELAFQFKDAGLSIFNNTWSNIHDFTPVSGELNWSLLPEDAVVQDYVPIPTTEELKAVRVSTEANRSIVPISRGQRQKSSDESCLVVLFAGDYTIANARKLIDEMVGKGFFLVQTKEVSMKAEDAQRVFREKAPDFLPLLNKGPVIALEFNGDGAVEVCQLIVNEIFNGTKMFVSESKETASGDVDSFYNFADIQMGI [E138G]
MGCFFSKRRKADKESRPENEEERPKQYSWDQREKVDPKDYMFSGLKDETVGRLPGTVAGQQFLIQDCENCNIYIFDHSATVTIDDCTNCIIFLGPVKGSVFFRNCRDCKCTLACQQFRVRDCRKLEVFLCCATQPIIESSSNIKFGCFQWYYPELAFQFKDAGLSIFNNTWSNIHDATPVSGELNWSLLPEDAVVQDYVPIPTTEELKAVRVSTEANRSIVPISRGQRQKSSDESCLVVLFAGDYTIANARKLIDEMVGKGFFLVQTKEVSMKAEDAQRVFREKAPDFLPLLNKGPVIALEFNGDGAVEVCQLIVNEIFNGTKMFVSESKETASGDVDSFYNFADIQMGI [F177A]
MGCFFSKRRKADKESRPENEEERPKQYSWDQREKVDPKDYMFSGLKDETVGRLPGTVAGQQFLIQDCENCNIYIFDHSATVTIDDCTNCIIFLGPVKGSVFFRNCRDCKCTLACQAFRVRDCRKLEVFLCCATQPIIESSSNIKFGCFQWYYPELAFQFKDAGLSIFNNTWSNIHDFTPVSGELNWSLLPEDAVVQDYVPIPTTEELKAVRVSTEANRSIVPISRGQRQKSSDESCLVVLFAGDYTIANARKLIDEMVGKGFFLVQTKEVSMKAEDAQRVFREKAPDFLPLLNKGPVIALEFNGDGAVEVCQLIVNEIFNGTKMFVSESKETASGDVDSFYNFADIQMGI [Q116A]

Variants of: B1
Conditions: with arl3_mouse Arl3, Q9WUL7
Remark: another data set of the same source

Effect of a mutation on the interaction, decreasing interaction:
MGCFFSKRRKADKESRPENEEERPKQYSWDQREKVDPKDYMFSGLKDETVGRLPGTVAGQQFLIQDCENCNIYIFDHSATVTIDDCTNCIIFLGPVKGSVFFRNCRDCKCTLACQQFHVRDCRKLEVFLCCATQPIIESSSNIKFGCFQWYYPELAFQFKDAGLSIFNNTWSNIHDFTPVSGELNWSLLPEDAVVQDYVPIPTTEELKAVRVSTEANRSIVPISRGQRQKSSDESCLVVLFAGDYTIANARKLIDEMVGKGFFLVQTKEVSMKAEDAQRVFREKAPDFLPLLNKGPVIALEFNGDGAVEVCQLIVNEIFNGTKMFVSESKETASGDVDSFYNFADIQMGI [R118H]
MGCFFSKRRKADKESRPENEEERPKQYSWDQREKVDPKDYMFSGLKDETVGRLPGTVAGQQFLIQDCENCNIYIFDHSATVTIDDCTNCIIFLGPVKGSVFFRNCRDCKCTLACQQFRVHSCRKLEVFLCCATQPIIESSSNIKFGCFQWYYPELAFQFKDAGLSIFNNTWSNIHDFTPVSGELNWSLLPEDAVVQDYVPIPTTEELKAVRVSTEANRSIVPISRGQRQKSSDESCLVVLFAGDYTIANARKLIDEMVGKGFFLVQTKEVSMKAEDAQRVFREKAPDFLPLLNKGPVIALEFNGDGAVEVCQLIVNEIFNGTKMFVSESKETASGDVDSFYNFADIQMGI [R120H;D121S]
MGCFFSKRRKADKESRPENEEERPKQYSWDQREKVDPKDYMFSGLKDETVGRLPGTVAGQQFLIQDCENCNIYIFDHSATVTIDDCTNCIIFLGPVKGSVFFRNCRDCKCTLACAQFRVRDCRKLEVFLCCATQPIIESSSNIKFGCFQWYYPELAFQFKDAGLSIFNNTWSNIHDFTPVSGELNWSLLPEDAVVQDYVPIPTTEELKAVRVSTEANRSIVPISRGQRQKSSDESCLVVLFAGDYTIANARKLIDEMVGKGFFLVQTKEVSMKAEDAQRVFREKAPDFLPLLNKGPVIALEFNGDGAVEVCQLIVNEIFNGTKMFVSESKETASGDVDSFYNFADIQMGI [Q115A]
MGCFFSKRRKADKESRPENEEERPKQYAADQREKVDPKDYMFSGLKDETVGRLPGTVAGQQFLIQDCENCNIYIFDHSATVTIDDCTNCIIFLGPVKGSVFFRNCRDCKCTLACQQFRVRDCRKLEVFLCCATQPIIESSSNIKFGCFQWYYPELAFQFKDAGLSIFNNTWSNIHDFTPVSGELNWSLLPEDAVVQDYVPIPTTEELKAVRVSTEANRSIVPISRGQRQKSSDESCLVVLFAGDYTIANARKLIDEMVGKGFFLVQTKEVSMKAEDAQRVFREKAPDFLPLLNKGPVIALEFNGDGAVEVCQLIVNEIFNGTKMFVSESKETASGDVDSFYNFADIQMGI [S28A;W29A]
